In PMC2500142:

Target: GFP-actin (UniProt P60709)
Assay: dual color fluorescence cross-correlation spectroscopy

relative cross-correlation amplitude ([Gc(0)-1]/[Gr(0)-1]), apical membrane: 0.33
relative cross-correlation amplitude ([Gc(0)-1]/[Gr(0)-1]), subapical region: 0.4
Substance: DsRed-AQP2 (from UniProt P41181 1-271) (natural protein)
